Drawing on PMC3458741, “Studies on the substrate specificity of a GDP-mannose pyrophosphorylase from Salmonella enterica” (Beilstein Journal of Organic Chemistry, 2012), this text covers Km, kcat and kcat/Km for one substance.

Experiment in all cases: purified protein
Settings in all cases: co-substrate GTP

Data set [1] has as its system O=P(O)(O)O[C@H]1O[C@H](CO)[C@@H](O)[C@H](O)[C@@H]1O.
From the text: (§1) colorimetric pyrophosphate detection assay on GDP-mannose pyrophosphorylase (GDP-ManPP)
For data set [2], the system named is COC[C@H]1O[C@H](OP(=O)(O)O)[C@@H](O)[C@@H](O)[C@@H]1O.
From the text: as §1
In data set [3] the test system is C[C@H]1O[C@H](OP(=O)(O)O)[C@@H](O)[C@@H](O)[C@@H]1O.
From the text: as §1
Data set [4] concerns CO[C@H]1[C@H](O)[C@H](O)[C@@H](OP(=O)(O)O)O[C@@H]1CO.
From the text: as §1
Data set [5] relates to CO[C@@H]1[C@H](O)[C@@H](OP(=O)(O)O)O[C@H](CO)[C@H]1O.
From the text: as §1
The test system of data set [6] is CO[C@@H]1[C@@H](OP(=O)(O)O)O[C@H](CO)[C@@H](O)[C@@H]1O.
From the text: as §1

For “GDP-mannose pyrophosphorylase (GDP-ManPP) (Salmonella enterica subsp. enterica serovar Typhimurium str. LT2)”, the Michaelis-Menten constant (Km) (commonly the substrate concentration at which the rate is half of its maximum) is 40 ± 6 µM in data set [1]; 120 ± 18 µM in data set [2]; 70 ± 13 µM in data set [3]; 3400 ± 870 µM in data set [4]; 200 ± 72 µM in data set [5]; 4000 ± 1100 µM in data set [6]. Also, the turnover number (kcat) (as a rule, the maximal rate divided by the concentration of active sites) in data set [1] stood at 6 ± 0.267 s⁻¹; in data set [2] it was 0.45 ± 0.0167 s⁻¹; in data set [3], 5 ± 0.217 s⁻¹; in data set [4] it was 0.517 ± 0.0783 s⁻¹; in data set [5], 0.0867 ± 0.0117 s⁻¹; in data set [6], 1.17 ± 0.183 s⁻¹. For the same substance, the kcat/Km (commonly the turnover number divided by the Michaelis constant) in data set [1] is 150000 ± 50000 M⁻¹ s⁻¹; in data set [2], 3830 ± 1000 M⁻¹ s⁻¹; in data set [3], 66700 ± 16700 M⁻¹ s⁻¹; in data set [4] it was 150 ± 83.3 M⁻¹ s⁻¹; in data set [5] it was 433 ± 16.7 M⁻¹ s⁻¹; in data set [6] it was 333 ± 167 M⁻¹ s⁻¹.
